Each block holds one binder with its values, some of them ahead of it.
How the values were obtained:
[1] = target: T1, tau antigens from human AD brain, S1(p) fraction (human, UniProt P10636 2-758, phosphorylated; sites not listed for this fraction); assay: fluid phase MSD ELISA: inhibition of tau antigen capture
T1 construct: Brain-derived; isoform mix; also called AD-S1(p); AD s1(p)
Protocol: B: The samples were incubated on MSD plates coated with AD-P3 (1 μg/ml) for 2 hours followed by wash and detection of captured Tau antigens using sulfo tagged anti-total TauG antibodies.

[2] = target: T2, pathological hyperphosphorylated tau from human Alzheimer's disease brain, sarkosyl-insoluble P3 fraction (human, UniProt P10636 2-758, hyperphosphorylated; phosphoserine at 396 (other sites not listed)); assay: MSD ELISA on immobilised P3 tau; ratio of binding to AD over healthy control at saturation
T2 construct: Brain-derived mixture of tau isoforms (bands at 54, 64, 69 and 74 kDa); also called AD-P3; AD P3
T2 sequence (P10636 other isoform, or with tags, fused parts or gaps limits assumed): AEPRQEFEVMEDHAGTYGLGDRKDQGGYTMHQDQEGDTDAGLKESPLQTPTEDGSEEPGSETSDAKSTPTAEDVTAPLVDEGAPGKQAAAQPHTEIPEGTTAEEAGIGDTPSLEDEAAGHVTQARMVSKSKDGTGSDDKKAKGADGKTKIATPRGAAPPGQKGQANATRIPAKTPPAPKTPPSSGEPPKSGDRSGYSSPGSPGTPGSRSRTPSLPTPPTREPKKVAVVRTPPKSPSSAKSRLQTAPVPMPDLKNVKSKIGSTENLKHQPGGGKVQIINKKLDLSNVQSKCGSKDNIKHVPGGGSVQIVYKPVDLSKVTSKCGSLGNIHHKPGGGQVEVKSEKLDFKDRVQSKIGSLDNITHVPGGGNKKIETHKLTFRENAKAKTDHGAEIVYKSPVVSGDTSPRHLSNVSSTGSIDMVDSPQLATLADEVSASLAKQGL

T1 sequence (P10636 other isoform, or with tags, fused parts or gaps limits assumed): as above

IC50 [1]: 11 nM
B1: Antibody C10-2 (murine) (antibody, mouse IgG1, kappa, V domains shown)
VH: QVQLQQSDAELVKPGASVKISCKASGYTFTDRTIHWVKQRPEQGLEWIGYIYPGDGSTKYNENFKGKATLTADKSSSTAYMQLNSLTSEDSAVYFCARRGAMDYWGQGTSVTVSS
VL: DVQMIQSPSSLSASLGDIVTMTCQASQGTSINLNWFQQKPGKAPKLLIYGASNLEDGVPSRFSGSRYGTDFTLTISSLEDEDMATYFCLQHTYLPFTFGSGTKLEIKR
notes: Mouse monoclonal from hybridoma; also called mC10-2; mouse C10-2

AD/ctrl [2]: 3 fold
B2: IPN002 (antibody, V domains shown)
VH: EVHLVESGGALVKPGGSLKLSCAASGFSFSKYGMSWVRQTPDKRLEWVATISSSGSRTYYPDSVKGQFTISRDNAKNTLYLQMSSLKSEDTAMYYCSISWDGAMDYWGQGTSVTVSS
VL: DVLMTQTPLSLPVSLGDQASISCKSSQSIVHSNGNTYLEWYLQKPGQSPKLLVYKVSNRFSGVPDRFSGSGSGTDFTLKISRVEAEDLGTYYCFQGSLVPWAFGGGTKLEIK

IC50 [1]: 503 nM
B3: Antibody D1.2 (antibody, mouse IgG2b, kappa, V domains shown)
VH: QVQLQQSGAELVRPGASVTLSCKASGNTFTDYEIHWVKQTPVHGLEWIGAIDPETGNTAYNQKFKGKARLTADKSSSTAYMELRSLTSEDSAVYYCTRSRGFDYWGQGTTLTVSS
VL: DVMMTQTPLSLPVSLGDQASISCRSSQSLVHSNGNTYLHWHLQKPGQSPKFLIYKVSNRFSGVPDRFSGSGSGTDFTLKISRVEAEDLGVYFCSQSTHVPFTFGSGTKLEIKR
notes: Mouse monoclonal; also called mD1.2; mouse D1.2

Reference: patent US20170015738A1 (H LUNDBECK A S, published 2017)
